Experimental data reported in patent US6844171 (Harvard, dated 2005).

Experiments:
[1] = target: δ25-60(Y) peptide (regions B+C of the HDAg multimer-forming domain, with C-terminal tyrosine) (hepatitis delta virus (American strain)); test: CD spectroscopy in PBS at 37° C.
[2] = target: δ12-49 peptide (regions A+B of the HDAg multimer-forming domain) (hepatitis delta virus (American strain)); test: CD spectroscopy in PBS at 37° C.
[3] = target: the molecule itself; test: glutaraldehyde cross-linking, MALDI-TOF mass spectrometry

“δ25-60(Y) peptide (regions B+C of the HDAg multimer-forming domain, with C-terminal tyrosine)” showed a [θ222]/[θ208] ratio (indicator of coiled-coil formation) [1] of 0.76.

GREDILEQWVSGRKKLEELERDLRKLKKKIKKLEEDNP [δ12-49 peptide (regions A+B of the HDAg multimer-forming domain)] gave a [θ222]/[θ208] ratio (indicator of coiled-coil formation) [2] of 0.79.

B1: recombinant small delta antigen (r-HDAg-S), full length, expressed in E. coli from plasmid pR5δV5 (other)
chain: SRSERRKDRGGREDILEQWVSGRKKLEELERDLRKLKKKIKKLEEDNPWLGNIKGIIGKKDKDGEGAPPAKKLRMDQMEIDAGPRKRPLRGGFTDKERQDHRRRKALENKRKQLSSGGKSLSREEEEELKRLTEEDEKRERRIAGPSVGGVNPLEGGSRGAPGGGFVPSMQGVPESPFARTGEGLDIRGSQGFP
notes: also called r-δAg-S; rδAg-S
B1 was tested, and the “ratio of the masses of the cross-linked species to the monomer” value [3] was 8.1.
